Biological target: LgBiT-Npc1l1 expressed on OVA-Panc-02 cells (UniProt Q6T3U4 21-1333)
Assay: split reporter

Chain of LgBiT-Npc1l1 expressed on OVA-Panc-02 cells (Q6T3U4 21-1333): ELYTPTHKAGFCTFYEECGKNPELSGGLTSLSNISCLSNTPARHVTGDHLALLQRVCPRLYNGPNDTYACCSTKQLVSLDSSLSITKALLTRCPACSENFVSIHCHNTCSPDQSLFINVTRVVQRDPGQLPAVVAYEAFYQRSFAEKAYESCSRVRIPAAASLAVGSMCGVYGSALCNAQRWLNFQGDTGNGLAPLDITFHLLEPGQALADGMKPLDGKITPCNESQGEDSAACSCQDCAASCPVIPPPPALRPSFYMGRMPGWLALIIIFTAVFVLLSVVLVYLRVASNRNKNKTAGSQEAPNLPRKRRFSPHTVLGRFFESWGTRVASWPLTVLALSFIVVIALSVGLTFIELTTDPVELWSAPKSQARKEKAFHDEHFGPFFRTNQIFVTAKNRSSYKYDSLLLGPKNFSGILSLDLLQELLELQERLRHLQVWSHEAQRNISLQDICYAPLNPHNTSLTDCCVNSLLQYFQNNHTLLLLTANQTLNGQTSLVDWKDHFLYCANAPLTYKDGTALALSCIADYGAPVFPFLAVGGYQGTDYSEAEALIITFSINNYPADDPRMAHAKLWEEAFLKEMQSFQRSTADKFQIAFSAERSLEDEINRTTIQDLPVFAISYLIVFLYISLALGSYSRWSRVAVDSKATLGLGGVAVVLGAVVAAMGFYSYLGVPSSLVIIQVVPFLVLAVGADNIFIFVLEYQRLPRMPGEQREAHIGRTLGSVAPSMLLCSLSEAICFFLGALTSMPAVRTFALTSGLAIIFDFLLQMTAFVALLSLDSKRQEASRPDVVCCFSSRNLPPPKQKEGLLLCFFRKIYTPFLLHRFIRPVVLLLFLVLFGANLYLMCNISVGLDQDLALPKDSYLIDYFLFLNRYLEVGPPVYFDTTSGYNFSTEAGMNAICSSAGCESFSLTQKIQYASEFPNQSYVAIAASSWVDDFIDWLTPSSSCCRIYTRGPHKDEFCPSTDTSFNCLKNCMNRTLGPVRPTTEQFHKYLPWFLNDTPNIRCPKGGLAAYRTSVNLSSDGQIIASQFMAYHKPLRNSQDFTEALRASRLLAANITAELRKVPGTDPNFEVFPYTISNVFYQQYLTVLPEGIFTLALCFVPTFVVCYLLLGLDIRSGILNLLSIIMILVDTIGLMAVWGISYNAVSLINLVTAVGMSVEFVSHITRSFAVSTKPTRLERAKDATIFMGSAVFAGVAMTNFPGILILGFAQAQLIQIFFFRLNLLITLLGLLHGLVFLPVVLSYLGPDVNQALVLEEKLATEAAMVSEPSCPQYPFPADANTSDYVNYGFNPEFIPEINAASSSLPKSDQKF

B1: SmBiT-Itgal (receptor)
chain: YNLDTRPTQSFLAQAGRHFGYQVLQIEDGVVVGAPGEGDNTGGLYHCRTSSEFCQPVSLHGSNHTSKYLGMTLATDAAKGSLLACDPGLSRTCDQNTYLSGLCYLFPQSLEGPMLQNRPAYQECMKGKVDLVFLFDGSQSLDRKDFEKILEFMKDVMRKLSNTSYQFAAVQFSTDCRTEFTFLDYVKQNKNPDVLLGSVQPMFLLTNTFRAINYVVAHVFKEESGARPDATKVLVIITDGEASDKGNISAAHDITRYIIGIGKHFVSVQKQKTLHIFASEPVEEFVKILDTFEKLKDLFTDLQRRIYAIEGTNRQDLTSFNMELSSSGISADLSKGHAVVGAVGAKDWAGGFLDLREDLQGATFVGQEPLTSDVRGGYLGYTVAWMTSRSSRPLLAAGAPRYQHVGQVLLFQAPEAGGRWNQTQKIEGTQIGSYFGGELCSVDLDQDGEAELLLIGAPLFFGEQRGGRVFTYQRRQSLFEMVSELQGDPGYPLGRFGAAITALTDINGDRLTDVAVGAPLEEQGAVYIFNGKPGGLSPQPSQRIQGAQVFPGIRWFGRSIHGVKDLGGDRLADVVVGAEGRVVVLSSRPVVDVVTELSFSPEEIPVHEVECSYSAREEQKHGVKLKACFRIKPLTPQFQGRLLANLSYTLQLDGHRMRSRGLFPDGSHELSGNTSITPDKSCLDFHFHFPICIQDLISPINVSLNFSLLEEEGTPRDQKVGRAMQPILRPSIHTVTKEIPFEKNCGEDKKCEANLTLSSPARSGPLRLMSSASLAVEWTLSNSGEDAYWVRLDLDFPRGLSFRKVEMLQPHSRMPVSCEELTEGSSLLTKTLKCNVSSPIFKAGQEVSLQVMFNTLLNSSWEDFVELNGTVHCENENSSLQEDNSAATHIPVLYPVNILTKEQENSTLYISFTPKGPKTQQVQHVYQVRIQPSAYDHNMPTLEALVGVPWPHSEDPITYTWSVQTDPLVTCHSEDLKRPSSEAEQPCLPGVQFRCPIVFRREILIQVTGTVELSKEIKASSTLSLCSSLSVSFNSSKHFHLYGSKASEAQVLVKVDLIHEKEMLHVYVLSGIGGLVLLFLIFLALYKVGFFKRNLKEKMEADGGVPNGSPPEDTDPLAVPGEETKDMGCLEPLRESDKD
  fold luminescence over the NanoBiT negative controls: 1000 fold

Source: PMC11910884 (The Innovation, 2025)
